Source: patent US20030166870A1
Like-named read-outs stand apart in the source and are kept apart here.

How the values were obtained:
[1] = target: human CCR5 (no tag stated) (human) (UniProt P51681); assay: 10 µg/ml mAb; 125I-MIP-1α binding to activated IL-2 maintained T cells (CD3 blasts); competitor MIP-1α
[2] = target: FLAG-tagged human CCR5 expressed on transfected L1.2 murine pre-B lymphoma cells (human) (UniProt P51681); assay: inhibition of 0.1 nM 125I-RANTES binding to CCR5 L1.2 transfectants by decreasing amounts of mAb; competitor RANTES
[3] = target: FLAG-tagged human CCR5 expressed on transfected L1.2 murine pre-B lymphoma cells (human) (UniProt P51681); assay: inhibition of 0.1 nM 125I-MIP-1α binding to CCR5 L1.2 transfectants by decreasing amounts of mAb; competitor MIP-1α
[4] = target: FLAG-tagged human CCR5 expressed on transfected L1.2 murine pre-B lymphoma cells (human) (UniProt P51681); assay: cell-based or functional assay
[5] = target: human CCR5 (no tag stated) (human) (UniProt P51681); assay: cell-based or functional assay
[6] = target: FLAG-tagged human CCR5 expressed on transfected L1.2 murine pre-B lymphoma cells (human) (UniProt P51681); assay: inhibition of 0.1 nM 125I-MIP-1β binding to CCR5 L1.2 transfectants by decreasing amounts of mAb; competitor MIP-1β
[7] = target: human CCR5 (no tag stated) (human) (UniProt P51681); assay: 10 µg/ml mAb; 125I-RANTES binding to activated IL-2 maintained T cells (CD3 blasts); competitor RANTES
[8] = target: FLAG-tagged human CCR5 expressed on transfected L1.2 murine pre-B lymphoma cells (human) (UniProt P51681)

murine monoclonal antibody 2D7 showed a percent inhibition of 125I-MIP-1α binding [1] of 85%, an IC50 [2] of 0.058 µg/mL and an IC50 [3] of 0.023 µg/mL. It also gave a mAb concentration sufficient for complete inhibition of migration of CCR5 L1.2 cells to all of the ligands [4] of 20 µg/mL, an inhibition of RANTES and MIP-1α chemotactic responses by T cell lines [5] of 60 to 80% and an inhibition of chemotactic response of anti-CD3/IL-2 stimulated T cells to MIP-1α [5] of 60 to 80%. It also gave an IC50 [6] of 0.041 µg/mL, a percent inhibition of 125I-RANTES binding [7] of 95% and an IC50 [8] of 0.01 µg/mL. The concentration giving complete inhibition of 125I-gp120 binding [8] was 50 ng/mL.
